Laboratory results: paper PMC3813556, “Probing the Dynamic Process of Encapsulation in Escherichia coli GroEL” (PLoS ONE, 2013)
Blank lines part the entries; values can stand above or below the molecule they belong to.

Experiments:
GroEL SR-1 RW (E. coli) = GroEL SR-1 RW (E. coli) (UniProt P0A6F5); experiment: FRET or BRET; stopped-flow intermolecular FRET from the apical domain tryptophan of the GroEL mutant to prebound acid-unfolded AEDANS-GroELwt (equimolar); decrease of FRET after addition of ATP and GroES
GroEL R231W = target: T1, GroEL R231W (E. coli, UniProt P0A6F5 1-548, R231W); experiment: stopped-flow tryptophan fluorescence; GroEL with prebound Gdn-HCl-unfolded MDH (5 min pre-incubation at 25°C); 0.625 µM GroEL oligomer; 1 mM ATP without or with equimolar GroES; settings: both partners purified
T1 construct: GroEL, E. coli, with a unique tryptophan in the apical domain; Double ring 14-mer; copies: 14

k of PhaseFRET2 (rate of release of the bound unfolded protein) (GroEL SR-1 RW (E. coli)): 0.21 s⁻¹
k of PhaseFRET (rate of release of the bound unfolded protein) (GroEL SR-1 RW (E. coli)): 4.1 s⁻¹
Molecule: AEDANS-labelled, acid-unfolded wild type GroEL (from UniProt P0A6F5 1-548) (natural protein)

binding result (GroEL R231W): binds
B1: GroES (natural protein, E. coli, UniProt P0A6F9 1-97, looked up)
chain: MNIRPLHDRVIVKRKEVETKSAGGIVLTGSAAAKSTRGEVLAVGNGRILENGEVKPLDVKVGDIVIFNDGYGVKSEKIDNEEVLIMSESDILAIVEA
notes: GroES, co-chaperonin of the E. coli chaperonin GroE; also called wild type GroES; co-chaperonin GroES
